Data published in patent US20200062856A1 (XDCEXPLORER SHANGHAI, published 2020).

T1: human TPBG-hFc protein (human, UniProt Q13641 32-355)
T1 construct: range 32-355; Expressed in HEK293 cells, purified on protein A; also called immunogen A; hFc tagged TPBG protein; not shown: human IgG Fc fragment of the pCpC vector
T1 sequence (looked up): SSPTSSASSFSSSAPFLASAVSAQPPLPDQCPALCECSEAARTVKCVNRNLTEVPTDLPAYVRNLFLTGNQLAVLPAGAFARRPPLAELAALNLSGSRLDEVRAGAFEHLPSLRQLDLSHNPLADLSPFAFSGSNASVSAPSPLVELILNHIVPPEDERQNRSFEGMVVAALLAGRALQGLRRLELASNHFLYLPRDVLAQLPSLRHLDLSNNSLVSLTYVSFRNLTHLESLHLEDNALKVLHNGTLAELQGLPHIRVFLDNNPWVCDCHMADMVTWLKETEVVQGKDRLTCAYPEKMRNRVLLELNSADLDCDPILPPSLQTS


Biological target: T1, human TPBG-hFc protein
Assay: ELISA, coated human TPBG-hFc
Method: The purified human TPBG-hFc obtained from step (1) diluting with PBS to a final concentration of 1.0 μg/mL was aliquoted into a 96-well ELISA plate at 100 μL per well, and sealed with a parafilm and incubated at 4° C. overnight. The plate was washed twice with plate washing buffer (PBS containing 0.01% (v/v) Tween 20), and blocked with blocking buffer (PBS containing 0.01% (v/v) Tween 20 and 1% (w/w) BSA) at room temperature for 2 h. The blocking buffer was discarded, and […] per well of the purified antibody TPBG was added. After incubating at 37° C. for 2 h, the plate was washed for three times with plate washing buffer (PBS containing 0.01% (v/v) Tween 20). HRP (horseradish peroxidase)-labeled secondary antibody (purchased from Sigma) was added and incubated at 37° C. for 2 h, and the plate was washed for three times using plate washing buffer (PBS containing 0.01% (v/v) Tween 20). 100 μL of TMB substrate was aliquoted into each well, incubated at room temperature for 30 min, and 100 μL of stop buffer (1.0 N HCl) per well was subsequently added. A_{450 nm} values were read using the ELISA plate reader (SpectraMax 384plus purchased from Molecular Device), and the results were shown in Table 5. […] In Table 5 the IgG control herein is a mice IgG control, the data in the Table are OD_{450 nm} values, and Blank represents the OD_{450 nm} value of PBS buffer in the plate.
The purified humanized TPBG antibody obtained from Embodiment 1 was reacted with human TPBG-hFc, for the method, see (5) Identification of lead antibody in Embodiment 1. The EC50 in Table 11 and Table 12 are calculated according to the OD450 nm value of the h12B12 variants and the h28D4 variants, respectively. […] FIGS. 7A and 7B are the binding reactions of purified humanized h12B12 variants to human TBPG-hFc protein, and FIGS. 8A and 8B are the binding reactions of the purified humanized h28D4 variants to human TBPG-hFc protein.

| Binder | EC50 |
| --- | --- |
| Humanized antibody 28D4-6 (antibody, V domains shown, also called h28D4-6) VH: EVQLVESGGGLVKPGGSLRLSCAASGFTFSNYVMSWIRQAPGKGLEWVSEISTGGSHTYYSDTVTGRFTISRDNAKNSLYLQMNSLRAEDTAVYYCIMFYYGSSYSMDYWGQGTTVTVSS VL: DIQMTQSPSSLSASVGDRVTITCRASQDIRNYLNWYQQKPGKAPKLLIYHTSRLHSGVPSRFSGSGSGTDYTFTISSLQPEDIATYYCQQGDTLPLTFGQGTRLEIK | 0.205 nM |
| Humanized antibody 28D4-9 (antibody, V domains shown, also called h28D4-9) VH: EVQLVESGGGLVKPGGSLRLSCAASGFTFSNYVMSWIRQAPGKGLEWVSEISTGGSHTYYSDTVTGRFTISRDNAKNSLYLQMNSLRAEDTAVYYCARFYYGSSYSMDYWGQGTTVTVSS VL: DIQMTQSPSSLSASVGDRVTITCRASQDIRNYLNWYQQKPGKTVKLLIYHTSRLHSGVPSRFSGSGSGTDYTFTISSLQPEDIATYFCQQGDTLPLTFGQGTRLEIK | 0.218 nM |
| Humanized antibody 12B12-6 (antibody, V domains shown, also called h12B12-6) VH: EVQLVESGGGLVQPGGSLRLSCAASGFTFSNFGMHWVRQAPGKGLEWVAYISSGSTSFYYADTVKGRFTISRDNAKNSLYLQMNSLRDEDTAVYYCSRTNSLLRGFFDAWGQGTTVTVSS VL: DIVLTQSPDSLAVSLGERATINCRASQSVSSSSYTYLHWYQQKPGQPPKLLIKSASNLESGVPDRFSGSGSGTDFTLTISSLQAEDVAVYYCQHSWEIPLTFGQGTKLEIK | 0.362 nM |
| Humanized antibody 12B12-14 (antibody, V domains shown, also called h12B12-14) VH: EVQLVESGGGLVQPGGSLRLSCAASGFTFSNFGMHWVRQAPGKGLEWVAYISSGSTSFYYADTVKGRFTISRDNAKNSLYLQMNSLRDEDTAVYYCSRTNSLLRGFFDAWGQGTTVTVSS VL: DIVLTQTPLSLSVTPGQPASISCRASQSVSSSSYTYLHWYLQKPGQPPQLLIKSASNLESGVPDRFSGSGSGTDFTLKISRVEAEDVGVYYCQHSWEIPLTFGQGTKLEIK | 0.257 nM |
| Humanized antibody 12B12-1 (antibody, V domains shown, also called h12B12-1) VH: EVQLVESGGGLVQPGGSLRLSCAASGFTFSNFGMHWVRQAPGKGLEWVSYISSGSTSFYYADTVKGRFTISRDNAKNSLYLQMNSLRDEDTAVYYCSRTNSLLRGFFDAWGQGTTVTVSS VL: DIVMTQSPDSLAVSLGERATINCRASQSVSSSSYTYLHWYQQKPGQPPKLLIYSASNLESGVPDRFSGSGSGTDFTLTISSLQAEDVAVYYCQHSWEIPLTFGQGTKLEIK | 0.248 nM |
| Humanized antibody 12B12-9 (antibody, V domains shown, also called h12B12-9) VH: EVQLVESGGGLVQPGGSLRLSCAASGFTFSNFGMHWVRQAPGKGLEWVSYISSGSTSFYYADTVKGRFTISRDNAKNSLYLQMNSLRDEDTAVYYCSRTNSLLRGFFDAWGQGTTVTVSS VL: DIVMTQTPLSLSVTPGQPASISCRASQSVSSSSYTYLHWYLQKPGQPPQLLIYSASNLESGVPDRFSGSGSGTDFTLKISRVEAEDVGVYYCQHSWEIPLTFGQGTKLEIK | 0.223 nM |
| Humanized antibody 12B12-8 (antibody, V domains shown, also called h12B12-8) VH: EVQLVESGGGVVQPGRSLRLSCAASGFTFSNFGMHWVRQAPGKGLEWVAYISSGSTSFYYADTVKGRFTISRDNSKNTLYLQMNSLRAEDTAVYYCSRTNSLLRGFFDAWGQGTTVTVSS VL: DIVLTQSPDSLAVSLGERATINCRASQSVSSSSYTYLHWYQQKPGQPPKLLIKSASNLESGVPDRFSGSGSGTDFTLTISSLQAEDVAVYYCQHSWEIPLTFGQGTKLEIK | 0.287 nM |
| Humanized antibody 12B12-10 (antibody, V domains shown, also called h12B12-10) VH: EVQLVESGGGLVQPGGSLRLSCAASGFTFSNFGMHWVRQAPGKGLEWVAYISSGSTSFYYADTVKGRFTISRDNAKNSLYLQMNSLRDEDTAVYYCSRTNSLLRGFFDAWGQGTTVTVSS VL: DIVMTQTPLSLSVTPGQPASISCRASQSVSSSSYTYLHWYLQKPGQPPQLLIYSASNLESGVPDRFSGSGSGTDFTLKISRVEAEDVGVYYCQHSWEIPLTFGQGTKLEIK | 0.25 nM |
| Humanized antibody 12B12-13 (antibody, V domains shown, also called h12B12-13) VH: EVQLVESGGGLVQPGGSLRLSCAASGFTFSNFGMHWVRQAPGKGLEWVSYISSGSTSFYYADTVKGRFTISRDNAKNSLYLQMNSLRDEDTAVYYCSRTNSLLRGFFDAWGQGTTVTVSS VL: DIVLTQTPLSLSVTPGQPASISCRASQSVSSSSYTYLHWYLQKPGQPPQLLIKSASNLESGVPDRFSGSGSGTDFTLKISRVEAEDVGVYYCQHSWEIPLTFGQGTKLEIK | 0.289 nM |
| Humanized antibody 12B12-3 (antibody, V domains shown, also called h12B12-3) VH: EVQLVESGGGVVQPGRSLRLSCAASGFTFSNFGMHWVRQAPGKGLEWVAYISSGSTSFYYADTVKGRFTISRDNSKNTLYLQMNSLRAEDTAVYYCSRTNSLLRGFFDAWGQGTTVTVSS VL: DIVMTQSPDSLAVSLGERATINCRASQSVSSSSYTYLHWYQQKPGQPPKLLIYSASNLESGVPDRFSGSGSGTDFTLTISSLQAEDVAVYYCQHSWEIPLTFGQGTKLEIK | 0.333 nM |

Continued by falling EC50, values first:

| EC50 | Binder |
| --- | --- |
| 0.782 nM | Humanized antibody 28D4-5 (antibody, V domains shown, also called h28D4-5) VH: EVQLVESGGGLVKPGGSLRLSCAASGFTFSNYVMSWIRQAPGKGLEWVSEISTGGSHTYYSDTVTGRFTISRDNAKNSLYLQMNSLRAEDTAVYYCARFYYGSSYSMDYWGQGTTVTVSS VL: DIQMTQSPSSLSASVGDRVTITCRASQDIRNYLNWYQQKPGKAPKLLIYHTSRLHSGVPSRFSGSGSGTDYTFTISSLQPEDIATYYCQQGDTLPLTFGQGTRLEIK |
| 0.367 nM | Humanized antibody 12B12-7 (antibody, V domains shown, also called h12B12-7) VH: EVQLVESGGGVVQPGRSLRLSCAASGFTFSNFGMHWVRQAPGKGLEWVAYISSGSTSFYYADTVKGRFTISRDNSKNTLYLQMNSLRAEDTAVYYCARTNSLLRGFFDAWGQGTTVTVSS VL: DIVLTQSPDSLAVSLGERATINCRASQSVSSSSYTYLHWYQQKPGQPPKLLIKSASNLESGVPDRFSGSGSGTDFTLTISSLQAEDVAVYYCQHSWEIPLTFGQGTKLEIK |
| 0.364 nM | Humanized antibody 28D4-1 (antibody, V domains shown, also called h28D4-1) VH: EVQLVESGGGLVKPGGSLRLSCAASGFTFSNYVMSWIRQAPGKGLEWVSEISTGGSHTYYSDTVTGRFTISRDNAKNSLYLQMNSLRAEDTAVYYCARFYYGSSYSMDYWGQGTTVTVSS VL: DIQMTQSPSSLSASVGDRVTITCRASQDIRNYLNWYQQKPGKAPKLLIYHTSRLHSGVPSRFSGSGSGTDFTFTISSLQPEDIATYYCQQGDTLPLTFGQGTRLEIK |
| 0.274 nM | Humanized antibody 12B12-2 (antibody, V domains shown, also called h12B12-2) VH: EVQLVESGGGLVQPGGSLRLSCAASGFTFSNFGMHWVRQAPGKGLEWVAYISSGSTSFYYADTVKGRFTISRDNAKNSLYLQMNSLRDEDTAVYYCSRTNSLLRGFFDAWGQGTTVTVSS VL: DIVMTQSPDSLAVSLGERATINCRASQSVSSSSYTYLHWYQQKPGQPPKLLIYSASNLESGVPDRFSGSGSGTDFTLTISSLQAEDVAVYYCQHSWEIPLTFGQGTKLEIK |
| 0.239 nM | Humanized antibody 12B12-11 (antibody, V domains shown, also called h12B12-11) VH: EVQLVESGGGVVQPGRSLRLSCAASGFTFSNFGMHWVRQAPGKGLEWVAYISSGSTSFYYADTVKGRFTISRDNSKNTLYLQMNSLRAEDTAVYYCSRTNSLLRGFFDAWGQGTTVTVSS VL: DIVMTQTPLSLSVTPGQPASISCRASQSVSSSSYTYLHWYLQKPGQPPQLLIYSASNLESGVPDRFSGSGSGTDFTLKISRVEAEDVGVYYCQHSWEIPLTFGQGTKLEIK |
| 0.224 nM | Humanized antibody 28D4-10 (antibody, V domains shown, also called h28D4-10) VH: EVQLVESGGGLVKPGGSLRLSCAASGFTFSNYVMSWIRQAPGKGLEWVSEISTGGSHTYYSDTVTGRFTISRDNAKNSLYLQMNSLRAEDTAVYYCIMFYYGSSYSMDYWGQGTTVTVSS VL: DIQMTQSPSSLSASVGDRVTITCRASQDIRNYLNWYQQKPGKTVKLLIYHTSRLHSGVPSRFSGSGSGTDYTFTISSLQPEDIATYFCQQGDTLPLTFGQGTRLEIK |
| 0.191 nM | Humanized antibody 28D4-11 (antibody, V domains shown, also called h28D4-11) VH: EVQLVESGGGLVKPGGSLRLSCAASGFTFSNYVMSWIRQAPGKGLEWVAEISTGGSHTYYSDTVTGRFTISRDNAKKSLYLQMNSLRAEDTAVYYCIMFYYGSSYSMDYWGQGTTVTVSS VL: DIQMTQSPSSLSASVGDRVTITCRASQDIRNYLNWYQQKPGKTVKLLIYHTSRLHSGVPSRFSGSGSGTDYTFTISSLQPEDIATYFCQQGDTLPLTFGQGTRLEIK |
| 0.181 nM | Humanized antibody 28D4-2 (antibody, V domains shown, also called h28D4-2) VH: EVQLVESGGGLVKPGGSLRLSCAASGFTFSNYVMSWIRQAPGKGLEWVSEISTGGSHTYYSDTVTGRFTISRDNAKNSLYLQMNSLRAEDTAVYYCIMFYYGSSYSMDYWGQGTTVTVSS VL: DIQMTQSPSSLSASVGDRVTITCRASQDIRNYLNWYQQKPGKAPKLLIYHTSRLHSGVPSRFSGSGSGTDFTFTISSLQPEDIATYYCQQGDTLPLTFGQGTRLEIK |
